According to US20210388084A1 (JJP BIOLOGICS SP Z O O, published 2021):

What was measured:
[1] = biological target: T1, recombinant C-terminal polyhistidine-tagged human (extracellular) CD89 (human, UniProt P24071 22-227); assay: ELISA, coated rhuCD89, half-maximum binding
T1 construct: extracellular domain; bought (Sino Biological); also called rhuCD89
Procedure: After extensive washing with PBS/0.05% Tween 20, plates were blocked with PBS/0.05% Tween 20/1% BSA (Roche) for 1 hour at RT. Subsequently, plates were incubated with 50 μL titrated (in block buffer) purified mouse anti-human CD89 antibody/well for 1 hour at RT. […] After extensive washing in PBS/0.05% Tween 20, binding of antibodies on rhuCD89 was determined with 1:5,000 diluted horseradish peroxidase (HRP)-conjugated goat anti-mouse IgG Fey-specific antibodies (Jackson ImmunoResearch) for 1 hour at RT, followed by a ready-to-use solution of TMB substrate (Invitrogen) for colorimetric detection.
After extensive washing with PBS/0.05% Tween 20, plates were blocked with PBS/0.05% Tween 20/1% BSA (Roche) for 1 hour at RT. Subsequently, plates were incubated with and without 50 μL titrated (in block buffer) purified chimeric mouse/human anti-human CD89 antibody/well for 1 hour at RT. After extensive washing in PBS/0.05% Tween 20, binding of antibodies on rhuCD89 was determined with 1:5,000 diluted horseradish peroxidase (HRP)-conjugated goat anti-human IgG Fey-specific antibodies (Jackson ImmunoResearch) for 1 hour at RT, followed by a ready-to-use solution of TMB substrate (Invitrogen) for colorimetric detection.

[2] = biological target: T2, membrane-bound full-length human CD89 (human, UniProt P24071 22-287); assay: FACS, HEK293F-huCD89, half-maximum binding
T2 construct: on stably or transiently transfected HEK293F cells; also called FcalphaRI; huCD89
Procedure: Then, 10 μL/tube (ie, 0.1×10⁶ cells) of these cells were incubated with or without 100 μL titrated (in PBS/BSA/NaN₃) purified chimeric mouse/human anti-human CD89 antibody/tube for 30 minutes at 4° C. […] After extensive washing in PBS/BSA/NaN₃, cells were subsequently incubated with 1:200 diluted PE-conjugated goat anti-human IgG Fey-specific antibodies (Jackson ImmunoResearch) for 30 minutes at 4° C. After extensive washing in PBS/BSA/NaN₃, cells were fixed in 2% formaldehyde in PBS/BSA/NaN₃ for 30 minutes at 4° C.

EC50 [1] [µg/mL] | EC50 [2] [µg/mL] | Binder
0.016 | 1.25 | chimeric mouse/human anti-human CD89 antibody 10E7 (antibody, human IgG4 S228P, kappa, mouse V regions on stabilized (S239P) human IgG4/kappa; also called chimeric 10E7; copies: 2 + 2) heavy: not shown light: DIQMTQSTSSLSASLGDSVTISCRASQDIINYLNWYQQKPDGTVKLLIYYTSRLHSGVPSRFSGSGSGTEYSLTVSNLEKEDIATYFCQQGKTLPYTFGGGTKLEIKRTVAAPSVFIFPPSDEQLKSGTASVVCLLNNFYPREAKVQWKVDNALQSGNSQESVTEQDSKDSTYSLSSTLTLSKADYEKHKVYACEVTHQGLSSPVTKSFNRGEC
0.031 | 1.32 | chimeric mouse/human anti-human CD89 antibody 8F3 (antibody, human IgG4 S228P, kappa, mouse V regions on stabilized (S239P) human IgG4/kappa; also called chimeric 8F3; copies: 2 + 2) heavy: not shown light: DVQITQSPSYLAASPGETITINCRASKTISKYLAWYQEKPGKTNMLLIYSGSTLQSGVPSRFSGSGSGTDFTLTISSLEPEDLAMYYCQQHDEYPWTFGGGTKLEIKRTVAAPSVFIFPPSDEQLKSGTASVVCLLNNFYPREAKVQWKVDNALQSGNSQESVTEQDSKDSTYSLSSTLTLSKADYEKHKVYACEVTHQGLSSPVTKSFNRGEC
0.009 | 0.296 | chimeric mouse/human anti-human CD89 antibody 20B4 (antibody, human IgG4 S228P, kappa, mouse V regions on stabilized (S239P) human IgG4/kappa; also called chimeric 20B4; copies: 2 + 2) heavy: not shown light: DILMTQSPSSMSVSLGDTVSITCHASQDISRNIGWLQQKPGKSFKGLIYHGTNLEDGVPSRFSGSGSGADYSLTISSLESEDFADYYCVQYAQFPRTFGGGTKLEIKRTVAAPSVFIFPPSDEQLKSGTASVVCLLNNFYPREAKVQWKVDNALQSGNSQESVTEQDSKDSTYSLSSTLTLSKADYEKHKVYACEVTHQGLSSPVTKSFNRGEC
0.108 | 1.79 | chimeric mouse/human anti-human CD89 antibody 16D6 (antibody, human IgG4 S228P, kappa, mouse V regions on stabilized (S239P) human IgG4/kappa; also called chimeric 16D6; 16D16; copies: 2 + 2) heavy: not shown light: EIVLTQSPALMAASPGEKVTITCSVSSSISSSNLHWYQQKSETSPKPWIYGTSKLASGVPVRFSGSGSGTSYSLTISNMEAEDAATYYCQQWSSFPLTFGGGTKLEIKRTVAAPSVFIFPPSDEQLKSGTASVVCLLNNFYPREAKVQWKVDNALQSGNSQESVTEQDSKDSTYSLSSTLTLSKADYEKHKVYACEVTHQGLSSPVTKSFNRGEC
